{"source": "patent USRE40789", "about": "(BAYLOR COLLEGE OF MEDICINE, dated 2009)", "binders": {"B1": {"name": "His6-tagged hChk1 (enzyme)", "chain": "MAVPFVEDWDLVQTLGEGAYGEVQLAVNRVTEEAVAVKIVDMKRAVDCPENIKKEICINKMLNHENVVKFYGHRREGNIQYLFLEYCSGGELFDRIEPDIGMPEPDAQRFFHQLMAGVVYLHGIGITHRDIKPENLLLDERDNLKISDFGLATVFRYNNRERLLNKMCGTLPYVAPELLKRREFHAEPVDVWSCGIVLTAMLAGELPWDQPSDSCQEYSDWKEKKTYLNPWKKIDSAPLALLHKILVENPSARITIPDIKKDRWYNKPLKKGAKRPRVTSGGVSESPSGFSKHIQSNLDFSPVNSASSEENVKYSSSQPEPRTGLSLWDTSPSYIDKLVQGISFSQPTCPDHMLLNSQLLGTPGSSQNPWQRLVKRMTRFFTKLDADKSYQCLKETCEKLGYQWKKSCMNQVTISTTDRRNNKLIFKVNLLEMDDKILVDFRLSKGDGLEFKRHFLKIKGKLIDIVSSQKVWLPATHHHHHH", "notes": "Expressed in baculovirus; used as a crude baculovirus extract in the pull-down and purified in the kinase assay; also called hChk1-His6; His6-tagged hChk1 derivative"}}, "target": "T1, GST-Dun1 (Saccharomyces cerevisiae, UniProt P39009 1-513)", "T1 construct": "Control GST fusion; The species is stated only in the background paragraph, not where the pull-down is told; not shown: glutathione S-transferase (GST) fusion partner", "T1 sequence (looked up)": "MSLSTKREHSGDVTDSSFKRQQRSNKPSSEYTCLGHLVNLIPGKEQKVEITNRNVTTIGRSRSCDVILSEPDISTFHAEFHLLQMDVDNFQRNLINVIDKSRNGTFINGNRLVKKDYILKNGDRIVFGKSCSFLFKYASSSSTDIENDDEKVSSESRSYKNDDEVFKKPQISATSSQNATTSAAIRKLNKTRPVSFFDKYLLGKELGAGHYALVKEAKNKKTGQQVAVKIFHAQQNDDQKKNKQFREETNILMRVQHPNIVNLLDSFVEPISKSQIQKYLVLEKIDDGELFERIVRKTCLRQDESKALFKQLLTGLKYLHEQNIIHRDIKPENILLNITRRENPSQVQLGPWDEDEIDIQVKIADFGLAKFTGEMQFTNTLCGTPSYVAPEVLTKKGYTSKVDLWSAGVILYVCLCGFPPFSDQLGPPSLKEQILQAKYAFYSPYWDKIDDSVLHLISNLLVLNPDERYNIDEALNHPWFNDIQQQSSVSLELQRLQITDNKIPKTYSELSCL", "experiment": "GST pull-down on glutathione beads from baculovirus extracts, immunoblot with anti Chk1 antibodies"}
{"binder": "B1", "values": [{"measurement": "binding result", "value": "no binding"}]}
